Laboratory results published in the nanobody polyreactivity screen of Harvey et al. (2022).

Assay: yeast display, Sf9 membrane polyspecificity reagent, FACS + sequencing; frameworks hold sequencing errors
Procedure, shortened: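 Synthetic nanobody libraries on Saccharomyces cerevisiae BJ5465 were galactose-induced for 36–48 hours, stained 1 hour at 4 °C with 10% biotinylated, detergent-solubilized Sf9 membrane reagent and enriched on streptavidin microbeads. FACS then separated cells into low and high (top ~1%) gates by anti-HA (expression) and streptavidin (reagent binding) fluorescence. Genes were colony-PCR amplified, MiSeq 2 × 250 sequenced and CDR-length filtered. A clone's polyreactivity label is that of its gate of origin.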

Row | Sequence | polyreactivity (PSR sort gate)
1 | QVQIVESGGGLVQAGGSLRLSSAAYGSTFAIYTMGWSRQAPGKERELVATISYSGGGTYYADSVKGRFTISRDNAKNTVYLQMNSLKPEDTAVYYCAAGRRTYYGTYYYWGQGTQVNVSS | high polyreactivity
2 | QVQLVESGGGLVQAGGSLRLSCAASGSIFTRYAMGWYRQAPGKERELVAVISVSGGRTYYADSVKGRFTISRDNAKNTVYLQMNSLKPEDTAVYYCAVGVLYAGYFYRYRYYYWGQGTQVTVSS | high polyreactivity
3 | QVQIVESGGGLVQAGGSLRLSCAASGFIFPANAMGWYRQAPGKEREFVAVISYSGGRTYYADSVKGRFTISRDNAKNTVYLQMNSLKPEDTSVYYCNVVRVATWGYDYWGQGSQVTVSS | low polyreactivity
4 | QVQLVETGGGLVQAGGSLRLSCAASGGIFGRNAMGWYRQAPGKERELVASISKSGGSTYYADSVKGRFTISRDNAKNTVYLQMNSLKPEDTAVYYCAARYSYFNWDNYYWGQGTQVTVSS | high polyreactivity
5 | QVQLVESGGGLVQAGGSLRLSCAASGIIFIRYAMGWYRQAPGKERELVAAISWRGGSTYYADSVKGRFTISRDNAKNTVYFQMNSLKPEDTAVYYCAAGYFSYRRYDYWGEGTQVTVSS | high polyreactivity
6 | QVQLVESGGGLVQAGGSLRLSCAASGRIFNGYAMGWYRQAPGKERELVASITSAGSTYFADSVTGRVTISRDNAKNTVYVQMNRLKPEDTAVYYCAADSYSVYYYTYDSWGQGTQVTVSS | low polyreactivity
7 | QVQHVESGGGLVQAGGSLRLSCAASGRIFEIYAMGWYRPAPGKERYLVAAISWRGVSTYYADSVKGRFTISRDYAKNTVYLQMNSLKPEDTAVFYCNNDVDYFWYVEYDYWGQGTQVTVSS | low polyreactivity
8 | QVQLVESGGGLVQAGGSLRLSCAASGSTFGRNAMGWYRQAPGKERELVATINWNGGRTYYADSVKGRFTISRDNAKNSVYLQMNSLKPEDTAVYYCNATKTGPATVRYYYWGQGTQVTVSS | high polyreactivity
9 | QDQLVESCGGLVQAGGSLRLSCASSGSTIYIYAMGWSRQAPVKERELVAAITWSGGSTYYADSVKGRFTISRDNAKNTVYLQMNSLNREDTAVYYFAAYLRYYRKEVGYSSMNYWGQGTQVTVSS | high polyreactivity
10 | QVQLVESGGGLVQAGGSLRLSCAASGSTFVPYAMGWNRQAPGKERELVASISWRGGSTSYADSVKGRFTISRDNAKNTVYLQMNSLKPEDNAVYYCAARPRYRYKQDYYYWGQGSQVTVSS | high polyreactivity
11 | QVQLVESGGGLVQAGGSLRLSCAASGGIFWVNAMGWYRQAPGKERELVAAISWSDDNTYYADSVKGRFTISRDNAKNTVYLQMNSLKPEDTAVYYCAKDFYDYGSFYWYEYWGQGTQVTVSS | high polyreactivity
12 | QVQLVESGGGLVQAGGSLRLSCAASGFTFPGNAMGWYRQAPGKEREFVAAITRSSGSTSYADSVKGRFTISRDNAKNTVYLQMNSLKPEDTAVYRDYWGQGTQVTVSS | low polyreactivity
13 | QVQLVESGGGLVQAGGSLRLSCAASGPTLHAYTMGWYRQAPGKERELVAAITRGGGNTYYADSVKGRFTISRDNAKNTVYLQMNSLKPEDTAVYYCNADVSGYLWYEYDYWGQGTQVTVSS | low polyreactivity
14 | QVQLVESGGGLDQAGGSLRLSCAASGFTFGSNAMGWYRQAPGKERELVASITTRGGSTYYADSVKGRFTISRDNANNTVYLQMNSLKPEDTAVYYCAARARYPNWTYYYWGQGTQVTVSS | high polyreactivity
15 | QVQLVESGGGLVQAGVSLRLSCAASGRIFGYNDMGWYRQAPGKERELVAAINWTGGSTYYADSVKGRFTISRDNAKNTVYLQMNSLKPEDTAVYYCNADARTKWVQTHTDFITDYDYWGQGTQVTVSS | low polyreactivity
16 | QVQLVESGGGLVQAGGSLRLSCAASGFIFSGYAMGWYRQAPGKERELVAAISTRGGRTYYADSVKGRFTISRDNAKNTVYLQMNSLKPEDTAVYYCAADSLYPELDYWGQGTQVTVSS | high polyreactivity
17 | QVQLEESGGGLVQAGGSLRLSCAASGNILFKYAMGWNRQAPGKERELVASITSRGGSTYYADSVKGRFTISRDNAKNTVYLQMNSLKPEDTAVYYCAVDADEVTFDYWGQGTQVTVSS | low polyreactivity
18 | QVQLVESGGGLVQAGRSLRLSCAASGRTFPPYDMGWYRQAPGKERELVAAITSDGSTSYADSVKGRFTISRDNAKNTVYLQMNRLKPEDTAVYYCNAEYGYSFGYGYYWWFDYWGQGTQVTVSA | high polyreactivity
19 | QVQLVESGGGLVQAGGSLRLSCAASGSIFSGYVMGWSRQAPGKERELVAAISGSGGSTYYADSVKGRFTISRDNAKNTVYLQMNSLNPEDTAVYYCNKGLSRSYWWVDYWGQGTQVTVSS | low polyreactivity
20 | QVQLVESGGGLVQAGGSLRLSCAASGSTFDGYTMGWYRQAPGKERELVAAISWRGTSTYYADSVKGRFTISRDNAKNTVYLQMNSLKPEDTAVYYCGAENWKPRVYWIYSGHHGYWGQGTQVTVSS | low polyreactivity
21 | QVQLVESGGGLVQAGGSLRLSCAASGSIFTGYAMGWYRQAPGKERELVAAISRSSGSTYYADSVKGRFTISRDNAKNTVYLQMNSLIPEDTAVYYCNAYSKYRSGRLYWMGYWGQGTQVTVSS | low polyreactivity
22 | QVQLVESGGGLVQAGGSLRLSCAASGSTFRTYAMGWYRQAPGKERELVAAISFNGTRTYYADSVKGRFTISRDNAKNTVYLQMNSLKPEDTAVYYCAARGRGSFHQKGYYYWGQGTQVTVSS | high polyreactivity

Row | Sequence | polyreactivity (PSR sort gate)
23 | QVQLVESGGGLVQAGGSLRLSCAASGSIFRSYAMGWYRQAPGNERELVAALSGRGSNTYYADSVKGRFTISRDNAKNTVYLQMNSLKPEDTAVYYGATRRHYGSTRSYDYWGQGTQVTVSS | high polyreactivity
24 | QVQLVESGGGLVQAGGSLRLSCAASGRNFLYNAMGWYRQAPGKERELVAVISKRGGRTYYADSVKGRFTISRDNAKNTVYLQMNSLKPEDTAVYYCAAAYVTPPGPLRYNEYYWGQGTQVTVSS | high polyreactivity
25 | QVQLVESGGGLVQAGGSLRLSCAASGSTLSYYAMGWYRQAPGKERELVAAISFSGGITYYADSVKGRFTISRDNAKNTVYLQMNSLKPEDTAVYYIKAEYKVYRAYVIWYDYWGQGTQVTVSS | high polyreactivity
26 | QVQLVESGGGLVQAGGSLRLSCAASGRIFPYYDMGWYRQAPGKERELVAAITWNGGSTYYADSVKGRFTISRDNAKNTVFLQMNSLKPEDSAVYYCAVEPYYYGEDYWGQGTQVTVSS | low polyreactivity
27 | QVQLVESGGGLVQAGGSLRLSCAASGRIFYINAMGWYRQAPGKERELVAAITSNGGSTYYADSVKGRFTISRDNAKNTVYLQMNSLKPEDTSVYYCAVSPRVPFRKPVFTPYNMYYWGQGTQVTVSS | high polyreactivity
28 | QVQLVESGGGLVQAGGSLRLSCAASGSTFKVNAMGWYRQAPGKERELVAAISRGGSTYADSVKGRFTISRDNAKNTVYFQINSLKPEDTAVYYCAAKSRYFQPDEYYYWGQGTQVTVSS | high polyreactivity
29 | QVQLVESGGGLVQAGGSLRLSCAASGSTFQTNAMGWYRQAPGKERELVAAINSGGGTNYADSVKGRFTISRDNAKNTVYLQMNSLKPEDTAVYYCATDVLPRKYVSDYPSGAYDYWGQGTQVTVSS | low polyreactivity
30 | QVQLVESGGGLVQAGGSLRLSCAASGSTFASNTMGWYRQAPGKERELVAAITQSGGTTYYADSVKGRFTISRDNAKNTVYLQMNSLKPEDTAVYYCAADATFIIRYLSRSDYWGQGTQVTVSS | low polyreactivity
31 | QVQLVESGGGLVQAGGSLRLSCAASGSTFGYNAMGWYRQAPGKEREFVATIRYSGDRTYYADSVKGRFTISRDNAKNTVYLQMNSLKPEDTAVYYCAADLYYNSYGRYGRYYYWGQGTQVTVSS | high polyreactivity
32 | QVQLVESGGGLVQAGGSLRLSCAASGIIFSGYVMGWYRQAPGKERELVAAIRWNGGNTYYADSVKGRFTISRDNAKNTVYLQMNSLKPEDTAVYYCAGRVRRPYSSLDYWGQGSQVTVSS | high polyreactivity
33 | QFQHVDSGGGLVQAGGSLRLSCADSGYTFPLYDMGRYRKAPGKVSELVADINIGGASTYYADSVKGRLTISRDNSKNSVYLQMNSLKPEDTAVYYCAKEYYDGYFPTFDYDYWGQGTQVTVSS | low polyreactivity
34 | QVQLVESGGGLVQAGGSLRLSCAASGSTFAQNTKGWYRQAPGKERELVATISDGGGSTYYADSVKGRFTISRDNAKNTVYLQMNSLKPEDTAVYYCNTDRFWPSDYWGQGTQVTVSS | low polyreactivity
35 | QVHLVESGRGLFQAGGSLRLSCAASGSIFGYNAMGWYRQAPGKERELVAAITWRGGSTYYADSVKGRFTISRDNAKNTVYLQMNSLKPEDTAVYDCAAYVYQEYDYWGQGTQVTVSS | high polyreactivity
36 | QVQLVESGGGLVQAGGSLRLSCAAYGRTFDTYAMGGYRQAPGKERELVAAITKGGGSTYYADSVKGRFTISRDNAKNTVYLQMNSLKPEDTAVYYCNDRVHGEYFHGIRYYYWGQGTQVTVSS | low polyreactivity
37 | QVQLVESGGGLFQAGGSLRLSCAPSGRISNKYAMGWYRQAPGKERELVAAISYSGGTTYYADSVKGRFTISRDNAKNTVYLQMNSLKPEDTAGYYCAREWTKGYGYYWGYYWGQGTQVTASS | low polyreactivity
38 | QVQLVESGGGLVQAGGSLRLSCAASGRNSPSYAMGWYRQAPGKERELVAAISKRGGTTYYADSVKGRFTISRDNAKNTVYLQMNSLKPEDTAVYYCSARDYSHPTDDNYWGQRTQVTVSS | high polyreactivity
39 | QVQLVESGGGLVQAGGTLRLSCAASGSTFVDYAMGWYRQAPGKERELVAGINGSGGSTYYADSVKGRFTISRDNAKNTVYLQMNSLKPEDTAVYYCAKDGSNRLALPAWDYNYWGQGTQVTVSS | low polyreactivity
40 | QVQLVESGGGLVQAGGSLRLSCAASGSTFDIYAMGWYRQAPGKERELVAAITVSGGSTYYADSVKGRFTISRDNAKNTVYLQMNSLKPEDTAVYYCNADWSGWQGWYNYWGQGTQVTVSS | low polyreactivity
41 | QVQLVESGGGLVQAGGSLRLSCAASGSTFPWYTMGWYRQAPGKERELVAAISFSGGRTYYADSVKGRFTISRDNAKNTVYLQMNSLKPEDTAVYYCAATVGAASRYYYWGQGTQVTVSS | high polyreactivity
42 | QVQLVESGGGLVQAGGSLRLSCAASGRIFNFYAMGWYRQAPGKERELVASITSGGRTSYADSVKGRFTISRDNAKNTVYLQMNSLKPEDTAVYYCAAKSPLKTYYFTSFRYYYWGQGTQVTVSS | high polyreactivity
43 | QVQLVESGGGLVQAGGSLRLSCAASGRICWGYAMGWSRQAPGKERELVARITSGGDTYYADSVKGRFTISRDNAKNTVYLQMNSLKPEDTAVYYCAKSPAVKPYAYRESGFIYDYWGQGTQVTVSS | low polyreactivity
